Measured values from patent US20250304918A1 (Regeneron, published 2025).

T1: mouse CACNG1 (mouse, UniProt O70578 1-223)
T1 construct: In the functional entries it is the endogenous protein on muscle of D2-mdx mice or on C2C12 myotubes
T1 sequence: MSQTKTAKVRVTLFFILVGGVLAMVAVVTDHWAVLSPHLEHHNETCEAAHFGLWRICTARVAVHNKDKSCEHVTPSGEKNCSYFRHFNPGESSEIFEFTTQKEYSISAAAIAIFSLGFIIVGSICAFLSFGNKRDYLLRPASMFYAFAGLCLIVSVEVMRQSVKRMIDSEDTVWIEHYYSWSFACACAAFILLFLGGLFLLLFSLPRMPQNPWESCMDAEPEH


Columns and labels:
mouse CACNG1 [1] = biological target: T1, mouse CACNG1; assay: no binding assay described; definition of the label
mouse CACNG1 [2] = biological target: T1, mouse CACNG1; assay: no binding assay described; descriptor in figure legend
[3] = biological target: T2, human CACNG1 (Calcium Voltage-Gaged Auxiliary Subunit Gamma 1) (human, UniProt Q06432 1-222); assay: as above
T2 construct: In the transduction experiments it was expressed on 293 cells, human myotubes or muscle of humanized mice; also called hCACNG1; human CACNG1 protein
T2 sequence (Q06432 whole entry): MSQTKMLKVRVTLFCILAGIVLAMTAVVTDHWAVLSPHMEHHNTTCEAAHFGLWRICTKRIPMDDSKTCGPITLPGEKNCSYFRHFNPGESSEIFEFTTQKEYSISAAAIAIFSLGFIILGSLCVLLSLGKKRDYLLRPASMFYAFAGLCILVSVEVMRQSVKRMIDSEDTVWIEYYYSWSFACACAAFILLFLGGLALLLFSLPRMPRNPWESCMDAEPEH

Binder	binding result (mouse CACNG1 [1])	binding result (mouse CACNG1 [2])	binding result [3]
CACNG1 mAb #1 (antibody, V domains shown, On AAV particles the heavy chain was in a hIgG4US backbone, fused at its C-terminus to SpyCatcher and joined to SpyTag on the capsid; a Fab form was also used; also called anti-hCACNG1 mAb #1; anti-CACNG1 mAb #1) VH: QVQLVESGGGVVQPGRSLRLSCTASGITFRNYGMHWVRQAPGKGLEWVAVMWYDGSNKYYADSVKGRFTISGDNSKVYLQMNSLRAEDTAVYYCARRGTIRTAAPFDYWGQGTLVTVSS VL: not shown	no binding		
CACNG1 mAb #5 (antibody, V domains shown, also called Antibody Designation 5; 14574/10783) VH: QVQLVESGGGVVQPGTSLRLSCAASGFTFSSYGMHWVRQAPGKGLEWVAVIWIDGSNKYYADSVKGRFTISRDNSKNTLYLQMNSLRAEDTAVYYCARRGGIVVAAPFDYWGQGTLVTVSS VL: not shown	no binding		
CACNG1 mAb #3 (antibody, V domains shown, On AAV particles the heavy chain was fused at its C-terminus to SpyCatcher; also called Antibody Designation 3; 14572/10717) VH: QVQLVESGGGVVQPGRSLRLSCAASGFTFSTYGMHWVRQAPGKGLEWVAVIWHDGSDKYYVDSVKGRFSIARDNSKNTLYLQMNSLRVEDTGIYYCARRGIRGTVFDHWGLGTLVTVSS VL: DIQMTQSPSTLSASVGDRVTLTCRASQSISNKLAWYQQKPGKAPNLLIYKASNLESGVPSRFSGSGSGTEFTLTISSLQPDDFATYYCQQYNSYSWTFGQGTKVEIK		binds	binds
